Measurements from US20130130288A1.

What was measured:
Aβ1-40 monomer = assay: solution-phase equilibrium titration, free antibody read by ELISA on ADDL-coated plate, GRAFIT fit
Aβ1-20 peptide = assay: as above
[1] = biological target: amyloid β-derived diffusible ligands (ADDLs), oligomers of Aβ1-42; assay: as above
[2] = biological target: fibrillar Aβ (Aβ1-42 fibrils); assay: as above
Aβ1-42 monomer = assay: ELISA, IgG2 antibodies
biotinylated ADDLs [3] = assay: ELISA on coated antigen, chemiluminescence; antibody stored 1 month at 40°
biotinylated ADDLs [4] = assay: ELISA on coated antigen, chemiluminescence; antibody stored 1 month at 4°
biotinylated ADDLs [5] = assay: ELISA on coated antigen, chemiluminescence; antibody at 0 timepoint
biotinylated ADDLs [6] = assay: ELISA on coated antigen, chemiluminescence; antibody stored 1 month at 25°

Sequence of Aβ1-20 peptide (peptide, as listed by the source): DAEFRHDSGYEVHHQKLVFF

| Kd (Aβ1-40 monomer) [nM] | Kd (Aβ1-20 peptide) [nM] | Kd [1] [nM] | Kd [2] [nM] | EC50 (Aβ1-42 monomer) [nM] | EC50 (biotinylated ADDLs [3]) [nM] | EC50 (biotinylated ADDLs [4]) [nM] | EC50 (biotinylated ADDLs [5]) [nM] | EC50 (biotinylated ADDLs [6]) [nM] | Substance |
| --- | --- | --- | --- | --- | --- | --- | --- | --- | --- |
| 6.15 | 19.3 | 0.57 | 1.15 |  |  |  |  |  | WO-2 (antibody) |
|  |  |  |  | 18 | 5.9 | 1.7 | 1.1 | 2.1 | anti-ADDL antibody 19.3 |
